The text below walks through data of patent US20240034774A1 (Gilead, published 2024).

By EC50 is commonly meant the concentration that produces a half-maximal response. Higher therefore signals weaker potency. Usually Kd stands for the concentration at which binding is half-saturated. Read a high Kd as lower affinity.

Some targets named below: gp120 Bal (HIV-1); gp120 CAAN (HIV); gp120 REJO (HIV).
A further assay has as its target T1, Human FcγRIIIB-NA1 (human, UniProt O75015 17-200).
T1 construct: also called CD16b NA1
As to the kind of experiment: SPR (Biacore 4000), antibody amine coupled to CM4 chip, FcγRIIIB as analyte, steady-state fit.

Another assay concerns the target T2, Human FcγRIIIB-NA2 (human, UniProt O75015 17-200).
T2 construct: also called CD16b NA2
The description is as above.

The target of another assay is T3, Human FcγRIIIA-176V (human, UniProt P08637 17-208).
T3 construct: also called CD16a 176V
As to the kind of experiment: SPR (Biacore 4000), receptor amine coupled to CM4 chip, antibody as analyte, steady-state fit.

The target in the next assay is Human FcγRIIIA-176F (human, UniProt P08637 17-208). Described as above.
The target in another assay is T4, Human FcγRIIA-167H (human, UniProt P12318 36-218).
T4 sequence (looked up): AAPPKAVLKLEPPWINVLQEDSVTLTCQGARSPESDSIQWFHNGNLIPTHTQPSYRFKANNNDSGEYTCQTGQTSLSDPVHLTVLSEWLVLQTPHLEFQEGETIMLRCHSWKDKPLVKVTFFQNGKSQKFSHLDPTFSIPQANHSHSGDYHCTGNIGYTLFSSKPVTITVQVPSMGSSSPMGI
The assay is described as above.

A further assay deals with T5, Human FcγRIIA-167R (human, UniProt P12318 36-218).
T5 sequence (looked up): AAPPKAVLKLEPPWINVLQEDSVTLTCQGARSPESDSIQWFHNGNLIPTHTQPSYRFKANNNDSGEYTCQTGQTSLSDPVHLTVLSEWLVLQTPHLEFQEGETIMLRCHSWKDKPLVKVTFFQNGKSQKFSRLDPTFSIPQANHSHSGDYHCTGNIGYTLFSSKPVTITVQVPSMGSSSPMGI
The assay is described as above.

For another assay, the target named is T6, Human FcγRIIB (human, UniProt P31994 46-217).
T6 construct: also called FcγRIIB/C; FcRIIB/C
T6 sequence (looked up): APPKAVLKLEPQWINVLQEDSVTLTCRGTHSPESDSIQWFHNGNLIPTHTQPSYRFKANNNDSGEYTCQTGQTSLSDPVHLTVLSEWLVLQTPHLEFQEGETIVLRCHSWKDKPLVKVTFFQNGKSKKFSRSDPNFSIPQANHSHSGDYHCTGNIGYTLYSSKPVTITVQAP
Kind of assay: SPR (Biacore 4000), FcγRIIB/C amine coupled to CM4 chip, antibody as analyte, steady-state fit. (SPR reads the build-up and loss of mass on a sensor chip optically.)

A further assay deals with T7, Cyno FcγRIIA (cynomolgus macaque).
T7 construct: also called cynomolgus macaque FcγRIIA
Kind of assay: SPR (Biacore 4000), antibody amine coupled to CM4 chip, cyno FcγRIIA as analyte, steady-state fit.

In another assay the target is T8, Cyno FcγRIIB (cynomolgus macaque).
T8 construct: also called cynomolgus macaque FcγRIIB
As to the kind of experiment: SPR (Biacore 4000), antibody amine coupled to CM4 chip, cyno FcγRIIB as analyte, steady-state fit.

Another assay addresses T9, Cyno FcγRIII (cynomolgus macaque, UniProt Q8SPW2 17-208).
T9 construct: also called cynomolgus macaque FcγRIII
As to the kind of experiment: SPR (Biacore 4000), antibody amine coupled to CM4 chip, cyno FcγRIII as analyte, steady-state fit.

The next assay concerns the target T10, Human FcγRI (human, UniProt P12314 16-288).
T10 construct: also called CD64
As to the kind of experiment: SPR (Biacore 4000), antibody amine coupled to CM4 chip, FcγRI as analyte (3 and 30 nM), kinetic fit.

Another assay deals with T11, Cyno FcγRI (cynomolgus macaque, UniProt A0A2K5U901 33-309).
T11 construct: also called cynomolgus macaque FcγRI
Kind of assay: SPR (Biacore 4000), antibody amine coupled to CM4 chip, cyno FcγRI as analyte (3 and 30 nM), kinetic fit.

Assay [1] addresses T12, Human FcRn (human, UniProt P55899 24-297; P61769 21-119).
T12 construct: also called neonatal Fc-receptor; biotinylated human FcRn
As to the kind of experiment: SPR (Biacore 4000) at pH 6.0, biotinylated FcRn captured on streptavidin C1 chip, antibody as analyte, steady-state fit.
Experimental: (§1) The in vitro binding dissociation constants (KD) of selected antibodies described herein for human and cynomolgus macaque (cyno) Fc binding receptors (FcγRs, FcRn) were determined using the Biacore 4000 surface plasmon resonace (SPR) biosensor, and either C1 or CM4 sensor chips (GE Healthcare).
(§2) For human FcRn binding assays, 600 RU of streptavidin was amine coupled to a C1 sensor chip using standard NHS/EDC coupling. The immobilization buffer was PBS+0.005% Tween 20, pH 7.4. Streptavidin was prepared at 50 μg/ml in 10 mM NaAc pH 4.5. Activation, coupling, and blocking steps were run for 10 minutes, each at 10 μl/min. […] Data were collected at pH 6.0 and pH 7.4 in triplicate. The response data at steady-state were fit to a simple binding isotherm.

The target of assay [2] is T12, Human FcRn. Kind of assay: SPR (Biacore 4000) at pH 7.4, biotinylated FcRn captured on streptavidin C1 chip, antibody as analyte, steady-state fit.
Experimental: as §1, §2
Assay [3] has as its target T13, Cyno FcRn (cynomolgus macaque, UniProt Q8SPV9 24-297; Q8SPW0 21-119).
T13 construct: also called cynomolgus macaque FcRn; biotinylated cyno FcRn
Kind of assay: SPR (Biacore 4000) at pH 6.0, biotinylated cyno FcRn captured on streptavidin C1 chip, antibody as analyte, steady-state fit.
Experimental: (§3) The in vitro binding dissociation constants (KD) of selected antibodies described herein for human and cynomolgus macaque (cyno) Fc binding receptors (FcγRs, FcRn) were determined using the Biacore 4000 surface plasmon resonace (SPR) biosensor, and either C1 or CM4 sensor chips (GE Healthcare). Biotinylated human FcRn was purchased from Immunitrack. Biotinylated cynomolgus macaque FcRn and human FcγRIIIB-NA1 and FcγRIIIB-NA2 were purchased from Acro Biosystems.
(§4) To determine cynomolgus macaque FcRn binding affinities, 600 RU of streptavidin was amine coupled to a C1 sensor chip using standard NHS/EDC coupling. The immobilization buffer was PBS+0.005% Tween 20, pH 7.4. Streptavidin was prepared at 50 μg/ml in 10 mM NaAc pH 4.5. Activation, coupling, and blocking steps were run for 10 minutes, each at 10 μl/min. Biotinylated cyno FcRn was captured to about 20 RU. Antibodies were tested for binding to the FcRn surface using a two-fold concentration series up to 1 μM. Data were collected at pH 6.0 and pH 7.4 in triplicate. The response data at steady-state were fit to a simple binding isotherm.

The target of assay [4] is T13, Cyno FcRn. As to the kind of experiment: SPR (Biacore 4000) at pH 7.4, biotinylated cyno FcRn captured on streptavidin C1 chip, antibody as analyte, steady-state fit.
Experimental: as §3, §4
Another assay concerns the target T14, human C1q protein (human, UniProt P02745 23-245; P02746 28-253; P02747 29-245).
T14 construct: also called complement protein C1q
As to the kind of experiment: C1q binding ELISA, antibody coated on plate, titrated human C1q, anti-C1q-HRP detection, n = 3 assays. Background: In an ELISA, binding on a coated surface is turned into a signal by an enzyme label.

Experimental for Cyno FcγRIIA: as §1
(§5) To determine cynomolgus macaque FcγRIIA, FcγRIIB, FcγRIII and FcγRI binding affinities each test antibody was amine coupled to a CM4 sensor chip at two densities (about 100 RU and about 800 RU). Cyno FcγRIIA and FcγRIIB were tested in a two-fold concentration series up to 1 μM. FcγRIII was tested in a two-fold concentration up to 500 nM. Cyno FcγRI was tested for binding using a two-step titration (3 nM and 30 nM). The response data for FcγRIIA, FcγRIIB, FcγRIII at steady-state were fit to a simple binding isotherm. Responses for FcγRI were fit to a simple kinetic model.
Experimental for Cyno FcγRIIB: as §1, §5
Experimental for Cyno FcγRIII: as §1, §5
Experimental for human C1q protein: A dose response binding ELISA was conducted to determine the relative C1q binding affinity of antibodies described herein. To conduct they assay, a 384-well Maxisorp plate was coated with 25 μl of antibody solution at 5 μg/mL in PBS pH 7.4 overnight at 4° C. Plates were then blocked with 75 μL of 1% BSA in PBS for 2 hours and washed 4 times with PBS+0.05% Tween 20 (PBST). Next, 25 μL of a three-fold serial dilution of human C1q protein in PBS+5% BSA was added to the plates. Plates were incubated with shaking at 600 rpm for one hour, washed 4 times with PBST and then 25 μL of anti-C1q-HRP conjugated polyclonal antibody was added in PBS+5% BSA. Plates were incubated with shaking at 600 rpm for 15 minutes, washed 8 times with PBST and then developed using 3,3′,5,5′-Tetramethylbenzidine (TMB) substrate and quenched with HCl.

B1: Antibody A-1 (antibody, human IgG1, kappa)
heavy: QVQLLQSGAAVTKPGASVRVSCEASGYNIRDYFIHWWRQAPGQGLQWVGWINPKTGQPNNPRQFQGRVSLTRHASWDFDTFSFYMDLKALRSDDTAVYFCARQRSDYWDFDVWGSGTQVTVSSASTKGPSVFPLAPSSKSTSGGTAALGCLVKDYFPEPVTVSWNSGALTSGVHTFPAVLQSSGLYSLSSVVTVPSSSLGTQTYICNVNHKPSNTKVDKKVEPKSCDKTHTCPPCPAPELLAGPDVFLFPPKPKDTLMISRTPEVTCVVVDVSHEDPEVKFNWYVDGVEVHNAKTKPREEQYNSTYRVVSVLTVLHQDWLNGKEYKCKVSNKALPLPEEKTISKAKGQPREPQVYTLPPSREEMTKNQVSLTCLVKGFYPSDIAVEWESNGQPENNYKTTPPVLDSDGSFFLYSKLTVDKSRWQQGNVFSCSVLHEALHSHYTQKSLSLSPGK
light: DIQMTQSPSSLSASVGDTVTITCQANGYLNWYQQRRGKAPKLLIYDGSKLERGVPSRFSGRRWGQEYNLTINNLQPEDIATYFCQVYEFVVPGTRLDLKRTVAAPSVFIFPPSDEQLKSGTASVVCLLNNFYPREAKVQWKVDNALQSGNSQESVTEQDSKDSTYSLSSTLTLSKADYEKHKVYACEVTHQGLSSPVTKSFNRGEC
On to B1, for which the EC50 stood at 0.06 nM with gp120 Bal, 2.17 nM with gp120 CAAN and 2.37 nM in the assay with gp120 REJO. Besides, the Kd with Human FcγRIIIB-NA1 is 59 nM; with Human FcγRIIIB-NA2, 56 nM; with Human FcγRIIIA-176V it was 59 nM; in the assay with Human FcγRIIIA-176F, 52 nM; with Human FcγRIIA-167H it was 131 nM; with Human FcγRIIA-167R, 130 nM. The Kd in the assay with Human FcγRIIB stood at 1600 nM; with Cyno FcγRIIA, 1100 nM; with Cyno FcγRIIB, 240 nM; in the assay with Cyno FcγRIII, 7.1 nM; with Human FcγRI, 0.002 nM; with Cyno FcγRI, 0.005 nM. Moreover, the Kd was determined as 38 nM with Human FcRn [1], 1700 nM with Human FcRn [2], 16 nM with Cyno FcRn [3] and 4300 nM with Cyno FcRn [4].

B2: Antibody A (antibody, human IgG1, kappa)
heavy: not shown
light: DIQMTQSPSSLSASVGDTVTITCQANGYLNWYQQRRGKAPKLLIYDGSKLERGVPSRFSGRRWGQEYNLTINNLQPEDIATYFCQVYEFVVPGTRLDLKRTVAAPSVFIFPPSDEQLKSGTASVVCLLNNFYPREAKVQWKVDNALQSGNSQESVTEQDSKDSTYSLSSTLTLSKADYEKHKVYACEVTHQGLSSPVTKSFNRGEC
On to B2, for which the EC50 came out at 0.05 nM in the assay with gp120 Bal, 1.84 nM with gp120 CAAN, 2.21 nM in the assay with gp120 REJO and 2.2 nM with human C1q protein. The Kd stood at 2000 nM with Human FcγRIIIB-NA1; 1500 nM with Human FcγRIIIB-NA2; 670 nM with Human FcγRIIIA-176V; 2300 nM in the assay with Human FcγRIIIA-176F; 1800 nM in the assay with Human FcγRIIA-167H; 3000 nM in the assay with Human FcγRIIA-167R. The Kd worked out at 11000 nM with Human FcγRIIB; 2000 nM in the assay with Cyno FcγRIIA; 895 nM in the assay with Cyno FcγRIIB; 200 nM with Cyno FcγRIII; 0.107 nM with Human FcγRI; 0.038 nM in the assay with Cyno FcγRI. Further, the equilibrium dissociation constant (Kd) turned out to be 485 nM with Human FcRn [1], 42000 nM with Human FcRn [2], 1100 nM in the assay with Cyno FcRn [3] and 12800 nM with Cyno FcRn [4].

B3: Antibody 1.52.64-1 (antibody, human IgG1, kappa)
heavy: QVQLLQSGAAVTKPGASVRVSCEASGYNIRDYFIHWWRQAPGQGLQWVGWINPKTGQPNNPRQFQGRVSLTRHASFDFDTFSFYMDLKALRSDDTAVYFCARQRSDYWDFDVWGSGTQVTVSSASTKGPSVFPLAPSSKSTSGGTAALGCLVKDYFPEPVTVSWNSGALTSGVHTFPAVLQSSGLYSLSSVVTVPSSSLGTQTYICNVNHKPSNTKVDKKVEPKSCDKTHTCPPCPAPELLAGPDVFLFPPKPKDTLMISRTPEVTCVVVDVSHEDPEVKFNWYVDGVEVHNAKTKPREEQYNSTYRVVSVLTVLHQDWLNGKEYKCKVSNKALPLPEEKTISKAKGQPREPQVYTLPPSREEMTKNQVSLTCLVKGFYPSDIAVEWESNGQPENNYKTTPPVLDSDGSFFLYSKLTVDKSRWQQGNVFSCSVLHEALHSHYTQKSLSLSPGK
light: DIQMTQSPSSLSASVGDTATITCQANGYLNWYQQRRGKAPKLLIYDGSKLERGVPSRFSGRRWGQEYNLTINNLQPEDIATYFCQVYEFVVPGTRLDLKRTVAAPSVFIFPPSDEQLKSGTASVVCLLNNFYPREAKVQWKVDNALQSGNSQESVTEQDSKDSTYSLSSTLTLSKADYEKHKVYACEVTHQGLSSPVTKSFNRGEC
Regarding B3, the EC50 with gp120 Bal worked out at 0.07 nM; in the assay with gp120 CAAN, 3.79 nM; in the assay with gp120 REJO, 4.02 nM. In addition, the Kd with Human FcγRIIIB-NA1 was determined as 64 nM; with Human FcγRIIIB-NA2, 55 nM; with Human FcγRIIIA-176V, 67 nM; with Human FcγRIIIA-176F, 63 nM; in the assay with Human FcγRIIA-167H, 221 nM; with Human FcγRIIA-167R it was 199 nM. Moreover, the Kd with Human FcγRIIB was 1900 nM; with Cyno FcγRIIA, 1180 nM; with Cyno FcγRIIB, 280 nM; in the assay with Cyno FcγRIII, 8 nM; with Human FcγRI, 0.0012 nM; with Cyno FcγRI, 0.005 nM. For the same molecule, the Kd with Human FcRn [1] amounted to 49 nM; with Human FcRn [2], 1120 nM; with Cyno FcRn [3], 22 nM; in the assay with Cyno FcRn [4], 5300 nM.
